Stoichiometry N data for three substances are collected here from article PMC11096469.

Assay [1] deals with C_(γ1-3) chain (VH-deleted human IgG1 heavy chain) (human). As to the kind of experiment: non-reducing SDS-PAGE with immunoblot; culture supernatants of HEK293 transfectants 48 h after transfection; 4-20% gels, reducing and non-reducing; probed with anti-human IgG-Fc and anti-human Cκ; covalent assembly.
Assay [2] concerns the target C_(γ2-3) chain (Fc fragment containing the hinge region) (human). The assay is described as above.
In assay [3] the target is Cκ chain (Vκ-deleted human kappa light chain) (human) (UniProt P01834). As to the kind of experiment: non-reducing SDS-PAGE with immunoblot; culture supernatants of HEK293-BiP cells transfected with LCs alone, 48 h after transfection; reducing and non-reducing gels.

Substance “C_(γ1-3) chain (VH-deleted human IgG1 heavy chain) (domain or fragment)” had a stoichiometry N in assay [1] of 2.
In the case of “C_(γ2-3) chain (Fc fragment containing the hinge region) (domain or fragment)”, the stoichiometry N in assay [2] came to 2.
In assay [3], “Cκ chain (Vκ-deleted human kappa light chain) (from UniProt P01834 1-107) (domain or fragment)” displayed a stoichiometry N of 2.
